# In patent US20210347908A1 (ELPISCIENCE SUZHOU BIOPHARMA, published 2021):
# Where a chain is given by its changes, count along the chain named.
# T1: 6×His tagged C57BL/6 mouse SIRPα ECD recombinant protein (mouse (C57BL/6), UniProt P97797 32-373)
# T1 construct: extracellular domain; bought; also called mSIRPα (C57BL/6); mouse SIRPα (C57BL/6) ECD
# T1 sequence: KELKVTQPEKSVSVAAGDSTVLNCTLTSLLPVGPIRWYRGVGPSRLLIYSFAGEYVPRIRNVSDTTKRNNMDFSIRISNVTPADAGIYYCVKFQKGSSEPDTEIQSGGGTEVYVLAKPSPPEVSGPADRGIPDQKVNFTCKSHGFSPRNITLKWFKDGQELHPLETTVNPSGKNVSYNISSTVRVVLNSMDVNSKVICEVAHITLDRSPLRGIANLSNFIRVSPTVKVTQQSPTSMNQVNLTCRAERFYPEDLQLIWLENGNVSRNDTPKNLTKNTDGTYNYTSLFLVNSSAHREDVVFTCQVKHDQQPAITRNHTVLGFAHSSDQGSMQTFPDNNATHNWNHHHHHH
# T2: full length C57BL/6 mouse SIRPα stably expressed on CHOK1 cells (mouse (C57BL/6), UniProt P97797 32-513)
# T2 construct: whole, on cells; also called CHOK1-C57BL/6 mouse SIRPα-2.22 cells
# T2 sequence (looked up): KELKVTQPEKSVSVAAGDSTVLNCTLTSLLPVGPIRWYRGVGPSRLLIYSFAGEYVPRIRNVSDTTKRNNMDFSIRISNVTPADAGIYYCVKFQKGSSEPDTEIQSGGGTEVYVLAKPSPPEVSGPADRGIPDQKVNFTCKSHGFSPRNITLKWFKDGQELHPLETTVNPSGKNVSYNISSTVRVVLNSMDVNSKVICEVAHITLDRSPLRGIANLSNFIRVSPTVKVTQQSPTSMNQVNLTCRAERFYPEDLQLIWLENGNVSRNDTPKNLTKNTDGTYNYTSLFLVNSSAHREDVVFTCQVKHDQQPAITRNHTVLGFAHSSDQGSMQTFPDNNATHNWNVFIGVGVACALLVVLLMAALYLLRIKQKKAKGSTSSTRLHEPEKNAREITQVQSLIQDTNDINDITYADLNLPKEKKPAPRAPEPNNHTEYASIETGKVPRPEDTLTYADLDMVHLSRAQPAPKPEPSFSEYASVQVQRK
# T3: full length cyno SIRPα stably expressed on CHOK1 cells (cynomolgus monkey, UniProt A0A2K5VYQ9 31-507)
# T3 construct: whole, on cells; also called CHOK1-cyno SIRPα-2A2 cells; CHOK1-cyno SIRPα
# T3 sequence: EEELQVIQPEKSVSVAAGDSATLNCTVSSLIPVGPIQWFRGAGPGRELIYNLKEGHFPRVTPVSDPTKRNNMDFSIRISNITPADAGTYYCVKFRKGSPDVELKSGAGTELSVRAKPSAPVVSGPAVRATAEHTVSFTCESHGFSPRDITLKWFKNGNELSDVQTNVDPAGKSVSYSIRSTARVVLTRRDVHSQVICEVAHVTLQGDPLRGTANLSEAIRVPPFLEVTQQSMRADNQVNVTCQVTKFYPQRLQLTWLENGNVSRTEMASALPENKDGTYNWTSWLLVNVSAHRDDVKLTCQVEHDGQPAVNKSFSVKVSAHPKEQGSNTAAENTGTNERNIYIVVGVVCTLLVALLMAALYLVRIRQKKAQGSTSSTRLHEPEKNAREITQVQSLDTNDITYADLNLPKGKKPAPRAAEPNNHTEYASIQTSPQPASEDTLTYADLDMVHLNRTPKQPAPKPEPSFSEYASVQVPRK
# B1: humanized antibody hu035.09 (antibody, V domains shown)
# VH: QIQLVQSGSELKKPGASVKVSCRAGGYTLTDYAMNWVRQAPGQGLEWMGFINTYTGEPTYAQGFKGRFVFSLDTSVSTAYLQIGSLKAEDTAVYYCARTRGYYDFDGGAFDYWGQGTLVTVSS
# VL: DIQMTQSPSSLSASVGDRVTITCRASQNVGTHLAWYQQKPGKAPKSLIYSAIYRYIGVPSRFSGSGSGTDFTLTISSLQPEDFATYYCQQYNTYPLTFGQGTKLEIK
# B2: humanized antibody hu035.13 (antibody, V domains shown)
# VH: B1 VH with R23K, G25S, T28S, L29I, D31N, G84S
# VL: DIQMTQSPSRLGASVGDRVTITCRASQNVGTHLAWYQQKPGKAPKSLIYSAIYRYIGVPSRFSGSGSGTDFTLTISSLQPEDFATYFCQQYNTYPLTFDQGTKLEIKR
# B3: humanized antibody hu035.17 (antibody, V domains shown)
# VH: B1 VH with G25R
# VL: B2 VL with R10S, G12S
# B4: humanized antibody hu035.14 (antibody, V domains shown)
# VH: B1 VH with R23K, G25S, T28S, L29I, G84S
# VL: B1 VL with A43S, S46A, Y49F, S77N
# B5: humanized antibody hu035.10 (antibody, V domains shown)
# VH: B1 VH with G25R
# VL: B1 VL with A43S, S46A, Y49F, S77N
# Biological target: T4, 6×His tagged human SIRPα v1 ECD recombinant protein (human, UniProt P78324 31-373)
# T4 construct: extracellular domain; bought; also called hSIRPα V1 (SPR antigen)
# T4 sequence (P78324 other isoform, or with tags, fused parts or gaps): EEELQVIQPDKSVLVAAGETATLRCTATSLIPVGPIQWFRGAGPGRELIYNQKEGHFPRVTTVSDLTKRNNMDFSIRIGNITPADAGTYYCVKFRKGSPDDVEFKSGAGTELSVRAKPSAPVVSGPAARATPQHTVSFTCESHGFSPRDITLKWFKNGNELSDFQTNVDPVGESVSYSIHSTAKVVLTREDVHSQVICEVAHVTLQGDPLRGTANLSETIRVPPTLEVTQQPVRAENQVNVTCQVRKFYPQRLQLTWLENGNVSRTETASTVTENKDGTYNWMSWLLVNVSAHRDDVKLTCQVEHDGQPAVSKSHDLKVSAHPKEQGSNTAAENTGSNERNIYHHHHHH
# Assay: SPR (Biacore), antibody captured
# Description: (§1) Anti-SIRPα chimeric antibodies were characterized for binding affinity against human SIRPα v1, human SIRPα v2 and C57BL/6 mouse SIRPα using Biacore (GE). Briefly the antibodies to be tested were captured to CM5 chip (GE) using Human Antibody Capture Kit (GE). The antigens of 6×His tagged human SIRPα v1, human SIRPα v2 and C57BL/6 mouse SIRPα ECD recombinant proteins were serially diluted for multiple doses and injected at 30 μl/min for 180 s. Buffer flow was maintained for dissociation of 400 s. 3 M MgCl₂ was used for chip regeneration. The association and dissociation curves were fit with 1:1 binding model, and the Ka/Kd/KD values for each antibody were calculated.
Kd [nM],koff [s⁻¹],kon [M⁻¹ s⁻¹],Binder
2.17,0.000191,88300,B1
0.61,0.000117,192000,B2
0.86,0.00012,140000,B3
1.44,0.000129,89200,B4
3.82,0.000238,62100,B5

# Biological target: T5, 6×His tagged human SIRPα v2 ECD recombinant protein (human)
# T5 sequence (chain, as listed by the source): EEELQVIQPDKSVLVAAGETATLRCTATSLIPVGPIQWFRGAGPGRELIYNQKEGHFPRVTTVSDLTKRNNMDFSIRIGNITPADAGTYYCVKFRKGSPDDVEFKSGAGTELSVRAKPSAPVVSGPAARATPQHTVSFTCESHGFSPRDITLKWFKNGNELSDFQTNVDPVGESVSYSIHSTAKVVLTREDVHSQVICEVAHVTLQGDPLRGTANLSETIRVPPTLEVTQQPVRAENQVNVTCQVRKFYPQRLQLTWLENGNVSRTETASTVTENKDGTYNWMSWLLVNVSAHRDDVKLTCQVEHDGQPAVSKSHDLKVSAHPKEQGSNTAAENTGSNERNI
# Assay: SPR (Biacore), antibody captured
# Description: as §1
Kd [nM],koff [s⁻¹],kon [M⁻¹ s⁻¹],Binder
3.2,0.000189,59200,B2
2.17,0.000191,88300,B3
1.64,0.00017,104000,B5

# Biological target: T1, 6×His tagged C57BL/6 mouse SIRPα ECD …
# Assay: SPR (Biacore), antibody captured
# Description: as §1
Kd [nM],koff [s⁻¹],kon [M⁻¹ s⁻¹],Binder
45.8,0.00259,56600,B2
25.9,0.0015,57900,B3
33.8,0.00152,45000,B5

# Biological target: T4, 6×His tagged human SIRPα v1 ECD …
# Assay: SPR (Biacore)
row,Kd [nM],Binder
1,2.17,B1
2,0.61,B2
3,0.86,B3
4,1.44,B4
5,3.82,B5

# Biological target: T5, 6×His tagged human SIRPα v2 ECD …
# Assay: SPR (Biacore)
row,Kd [nM],Binder
1,1.24,B2
2,1.43,B3
3,2.15,B5

# Biological target: T1, 6×His tagged C57BL/6 mouse SIRPα ECD …
# Assay: SPR (Biacore)
row,Kd [nM],Binder
1,45.8,B2
2,25.9,B3
3,33.8,B5

# Biological target: T1, 6×His tagged C57BL/6 mouse SIRPα ECD …
# Assay: ELISA on coated mouse SIRPα (C57BL/6) ECD [Continued) F]
row,EC50 (read off the curve) [µg/mL],Binder
1,~0.04,B1
2,~0.04,B3
3,~0.04,B4
4,~0.04,B5

# Biological target: T6, biotin labeled soluble human SIRPα v1 ECD recombinant protein (human, UniProt P78324 31-373, biotin labeled)
# T6 construct: extracellular domain
# T6 sequence (P78324 31-373): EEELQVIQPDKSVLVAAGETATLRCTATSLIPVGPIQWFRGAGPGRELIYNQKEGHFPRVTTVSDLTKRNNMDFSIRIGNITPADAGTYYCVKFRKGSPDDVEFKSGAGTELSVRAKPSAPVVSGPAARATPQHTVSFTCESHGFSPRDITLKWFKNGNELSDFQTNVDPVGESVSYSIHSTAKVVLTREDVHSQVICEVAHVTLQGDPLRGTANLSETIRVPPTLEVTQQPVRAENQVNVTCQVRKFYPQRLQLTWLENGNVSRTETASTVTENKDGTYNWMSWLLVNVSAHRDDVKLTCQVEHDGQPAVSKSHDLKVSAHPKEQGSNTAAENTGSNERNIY
# Assay: competitive ELISA, hSIRPα/CD47 blocking
row,IC50 [nM],Binder
1,1.36,B1
2,1.33,B2
3,1.22,B3
4,1.46,B4
5,1.49,B5

# Biological target: T7, 6×His tagged human SIRPα v8 ECD recombinant protein (human)
# T7 construct: extracellular domain; bought; also called hSIRPα V8
# Assay: ELISA
row,EC50 [nM],Binder
1,0.21,B1
2,0.16,B2
3,0.26,B3
4,0.28,B4
5,0.18,B5

# Biological target: T8, Fc tagged human SIRPα v2 ECD recombinant protein (human)
# T8 construct: range 1-369; cloned range M1-R369 includes the signal peptide; also called hSIRPα V2
# Assay: ELISA
row,EC50 [nM],Binder
1,0.19,B1
2,0.17,B2
3,0.15,B3
4,0.16,B4
5,0.16,B5

# Biological target: T9, Fc tagged human SIRPβ ECD recombinant protein (human, UniProt O00241 30-371)
# T9 construct: range 1-371; cloned range includes the signal peptide; also called hSIRPβ; not shown: human IgG Fc region (hFc) of the pCPC vector
# T9 sequence (O00241 30-371 limits assumed, form in doubt): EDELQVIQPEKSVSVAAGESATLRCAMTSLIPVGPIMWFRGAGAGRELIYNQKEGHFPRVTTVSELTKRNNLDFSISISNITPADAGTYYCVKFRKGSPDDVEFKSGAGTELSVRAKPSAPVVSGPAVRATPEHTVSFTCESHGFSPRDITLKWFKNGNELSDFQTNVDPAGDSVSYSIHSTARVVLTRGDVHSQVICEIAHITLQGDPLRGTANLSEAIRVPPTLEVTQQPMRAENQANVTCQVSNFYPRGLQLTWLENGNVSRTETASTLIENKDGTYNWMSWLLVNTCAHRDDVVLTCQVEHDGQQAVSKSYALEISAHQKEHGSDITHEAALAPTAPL
# Assay: ELISA
row,EC50 [nM],Binder
1,0.23,B1
2,0.18,B2
3,0.15,B3
4,0.23,B4
5,0.19,B5

# Biological target: T10, Fc tagged human SIRPα v1 ECD recombinant protein (human, UniProt P78324 31-370)
# T10 construct: range 1-370; cloned range M1-R370 includes the signal peptide; also called hSIRPα V1; not shown: human IgG Fc region (hFc) of the pCPC vector
# T10 sequence (P78324 31-370 limits assumed): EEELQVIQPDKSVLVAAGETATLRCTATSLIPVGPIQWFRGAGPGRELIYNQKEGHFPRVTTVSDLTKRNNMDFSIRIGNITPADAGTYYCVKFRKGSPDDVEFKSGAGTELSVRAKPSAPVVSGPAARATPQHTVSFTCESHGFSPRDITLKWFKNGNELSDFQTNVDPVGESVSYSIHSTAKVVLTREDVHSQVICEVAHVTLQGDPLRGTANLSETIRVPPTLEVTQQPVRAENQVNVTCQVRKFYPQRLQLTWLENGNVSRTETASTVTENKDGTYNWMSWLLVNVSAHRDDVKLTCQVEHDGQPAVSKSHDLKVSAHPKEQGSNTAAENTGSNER
# Assay: ELISA
row,EC50 [nM],Binder
1,0.13,B1
2,0.14,B2
3,0.18,B3
4,0.15,B4
5,0.19,B5

# Biological target: T11, Fc tagged human SIRPγ ECD recombinant protein (human, UniProt Q9P1W8 29-360)
# T11 construct: range 1-360; cloned range includes the signal peptide; also called hSIRPγ; not shown: human IgG Fc region (hFc) of the pCPC vector
# T11 sequence (Q9P1W8 29-360 limits assumed, form in doubt): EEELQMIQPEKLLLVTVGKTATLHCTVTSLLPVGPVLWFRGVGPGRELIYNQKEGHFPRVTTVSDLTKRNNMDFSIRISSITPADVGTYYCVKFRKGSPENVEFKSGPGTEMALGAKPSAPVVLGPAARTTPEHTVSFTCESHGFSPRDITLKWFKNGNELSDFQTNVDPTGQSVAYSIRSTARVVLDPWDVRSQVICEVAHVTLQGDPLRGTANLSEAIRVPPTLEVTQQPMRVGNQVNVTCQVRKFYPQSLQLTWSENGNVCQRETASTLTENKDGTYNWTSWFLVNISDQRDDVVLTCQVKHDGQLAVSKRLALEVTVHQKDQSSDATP
# Assay: ELISA
row,EC50 [nM],Binder
1,1.05,B1
2,0.67,B2
3,0.54,B3
4,0.52,B4
5,0.34,B5

# Biological target: T2, full length C57BL/6 mouse SIRPα stably …
# Assay: FACS on CHOK1 cells
# Description: (§2) Species cross reactivity of the purified hybridoma antibodies against human, cyno and mouse SIRPα was determined by FACS assay using CHOK1-human SIRPα v1-1B4 cells, CHOK1-cyno SIRPα-2A2 cells, and CHOK1-C57BL/6 mouse SIRPα-2.22 cells, which stably expressing SIRPα protein. Briefly the antibodies were incubated with 2×10⁵ target cells at 4° C. for 1 hour. After washing, fluorescence labeled anti-mouse or anti-human IgG 2nd antibody (Life Technologies) was added and incubated at 4° C. for 1 hour. Geometric median fluorescence intensity was detected and EC₅₀ was calculated. In particular, it is noted, in contrast to the other antibodies tested in the same experiment, 060 cannot bind with cyno SIRPα and 035 has cross reactivity against C57BL/6 mouse SIRPα.
row,MFI at 2 ug/ml [MFI],Binder
1,950,B1
2,876,B2
3,1120,B3
4,1050,B4
5,1110,B5

# Biological target: T3, full length cyno SIRPα stably expressed …
# Assay: FACS on CHOK1 cells
# Description: as §2
row,EC50 [nM],Binder
1,0.36,B1
2,0.26,B2
3,0.24,B3
4,0.36,B4
5,0.33,B5

# Biological target: T12, full length human SIRPα v1 stably expressed on CHOK1 cells (human, UniProt P78324 31-504)
# T12 construct: whole, on cells; also called CHOK1-human SIRPα v1-1B4 cells; CHOK1-human SIRPα v1
# Assay: FACS on CHOK1 cells
# Description: as §2
row,EC50 [nM],Binder
1,1.45,B1
2,1.03,B2
3,1.15,B3
4,1.31,B4
5,1.44,B5
